Measured values: patent US20040005636A1, “Method for obtaining the binding affinities of a peptide library to a protein” (priority 2002, published 2004)
Ends that are not written are not given here.

Tests used:
[1] = molecular target: T1, hERα-LBD (ligand binding domain of estrogen receptor α) (human, UniProt P03372 297-554); assay: fluorescence polarization, labelled peptide 10 nM, hERα-LBD titrated, diethylstilbestrol present; 100 may stand for above the assay limits
T1 construct: Assayed with estradiol, diethylstilbestrol, genistein or tamoxifen present; the ligand is named under assay in each row
T1 sequence (looked up): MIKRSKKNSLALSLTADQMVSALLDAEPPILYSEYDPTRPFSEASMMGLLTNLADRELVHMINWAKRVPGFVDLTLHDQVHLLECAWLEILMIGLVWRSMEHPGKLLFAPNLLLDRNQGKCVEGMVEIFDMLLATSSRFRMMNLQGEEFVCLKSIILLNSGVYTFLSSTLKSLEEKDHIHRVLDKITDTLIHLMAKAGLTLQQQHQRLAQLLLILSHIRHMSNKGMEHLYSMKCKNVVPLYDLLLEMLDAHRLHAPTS
Experimental: (§1) The concentration of protein varied between 0.001-20 μM in the following way. In 96 well plates, hTRβ-LBD or hERα-LBD was serially diluted from 40 μM to 0.002 μM in binding buffer (50 mM Sodium Phosphate, 150 mM NaCl, pH 7.2, 1 mM DTT, 1 mM EDTA, 0.01% NP40, 10% glycerol), containing 200 μM ligand (T₃, for TRβ, or estradiol, diethylstilbestrol, genistein or tamoxifen for ERα).
(§2) Subsequently 10 μL of diluted protein was added to 10 μL of fluorescent coregulator peptide (20 nM) in 384-well plates yielding final protein concentrations of […] and 10 nM fluorescent peptide concentration. The samples were allowed to equilibriate for 30 minutes. Binding was then measured using fluorescence polarization (excitation λ at 485 nm, emission λ at 530 nm) on an Analyst AD (available from Molecular Devices).
(§3) All experiments were carried out in quadruplicate, with each iteration containing the positive and negative controls, and 10-12 dose points. The data were then fit using Klotz plots to determine IC₅₀ values using nonlinear regression analysis that fits the data to a modification of the model of Heyduk and Lee. (Heyduk et al., Proc. Natl. Acad. Sci., (1990), 1774; Heyduk et al., Nature, (1993), 364, 6437; Heyduk et al., Methods Enzymol., 274, 492. Further analysis was conducted using Hill and Scatchard plots to confirm number and homogeneity of binding sites as discussed hereinbelow.

[2] = molecular target: T2, hTRβ-LBD (ligand binding domain of thyroid hormone receptor β) (human, UniProt P10828 202-461); assay: fluorescence polarization, hTRβ-LBD titrated, T3 present; Table 3 prints >AL (assay limits) for this pair
T2 construct: Assayed with the small-molecule ligand T3 present
T2 sequence (looked up): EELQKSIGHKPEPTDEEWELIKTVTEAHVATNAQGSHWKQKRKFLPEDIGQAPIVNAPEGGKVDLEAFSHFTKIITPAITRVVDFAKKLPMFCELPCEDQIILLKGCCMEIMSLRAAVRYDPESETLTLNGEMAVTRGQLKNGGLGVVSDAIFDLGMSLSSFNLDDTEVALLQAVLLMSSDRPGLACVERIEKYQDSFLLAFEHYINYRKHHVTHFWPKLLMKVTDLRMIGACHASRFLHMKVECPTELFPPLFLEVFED
Experimental: as §1, §2, §3

[3] = molecular target: T1, hERα-LBD (ligand binding domain of …); assay: fluorescence polarization, hERα-LBD titrated, estradiol present; repeats Table 4; 100 may stand for above the assay limits
Experimental: as §1, §2, §3

[4] = molecular target: T1, hERα-LBD (ligand binding domain of …); assay: fluorescence polarization, labelled peptide 10 nM, hERα-LBD titrated, genistein present; 100 may stand for above the assay limits
Experimental: as §1, §2, §3

[5] = molecular target: T1, hERα-LBD (ligand binding domain of …); assay: fluorescence polarization, labelled peptide 10 nM, hERα-LBD titrated, estradiol present; 100 may stand for above the assay limits
Experimental: as §1, §2, §3

Measured: Kd

C(5‑iodoacetamidofluorescein)KKENNALLRYLLDRDDPSD [SRC3-3 coregulator peptide]
100 µM: [1] | [2] | [3] | [4] | [5]
